Experiment [1] concerns the target T1, mouse IL1RAP (mouse, UniProt Q61730).
T1 chain: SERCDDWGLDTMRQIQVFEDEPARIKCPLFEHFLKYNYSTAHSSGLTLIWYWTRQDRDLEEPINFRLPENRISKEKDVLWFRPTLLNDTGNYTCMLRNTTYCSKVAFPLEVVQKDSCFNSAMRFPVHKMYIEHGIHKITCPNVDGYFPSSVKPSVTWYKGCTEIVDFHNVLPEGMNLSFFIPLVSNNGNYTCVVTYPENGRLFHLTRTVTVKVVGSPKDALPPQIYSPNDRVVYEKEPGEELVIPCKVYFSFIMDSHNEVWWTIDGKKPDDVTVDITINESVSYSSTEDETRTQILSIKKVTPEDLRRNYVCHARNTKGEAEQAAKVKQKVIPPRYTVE
The experiment in a line: ELISA.

Experiment [2] has as its target T2, rat IL1RAP (rat, UniProt Q63621).
T2 chain: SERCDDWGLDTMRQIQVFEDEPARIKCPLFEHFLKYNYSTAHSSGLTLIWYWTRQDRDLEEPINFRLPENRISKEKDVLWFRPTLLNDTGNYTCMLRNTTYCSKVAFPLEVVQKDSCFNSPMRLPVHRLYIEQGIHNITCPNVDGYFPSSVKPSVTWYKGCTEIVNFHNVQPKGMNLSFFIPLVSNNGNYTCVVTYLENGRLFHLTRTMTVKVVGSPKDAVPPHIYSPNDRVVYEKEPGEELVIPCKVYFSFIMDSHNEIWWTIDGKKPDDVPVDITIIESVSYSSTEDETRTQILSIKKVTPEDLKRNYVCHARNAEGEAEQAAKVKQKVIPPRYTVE
The experiment in a line: ELISA.

Experiment [3] deals with human IL1RAP Domain1+2 (aa21-234) (human, UniProt Q9NPH3). As to the kind of experiment: ELISA.
The target of experiment [4] is human IL1RAP ectodomain (aa21-367) (human, UniProt Q9NPH3). As to the kind of experiment: BLI.

Our source for the binding result and Kd values is patent publication US20260317434 (published 2026).

B1: 48A5 (antibody, V domains shown)
VH: QEQLEESEGGLFKPTETLTLTCTVSGFSLSYDITWVRQAPGNGLEWIGTIDTSSNTYHATWAKSRSTITKNTNLNTVTLKMTSLTAADTATYFCARGGVHAYAYAPAAFDPWGPGTLVTISS
VL: APVLTQTPSPVSAAVGGTVTISCQSSQSVYNDAYLAWYQQKPGQPPKLLIYLASTLASGVPSRFSGSGSGTQFTLTISGVQCEDAATYYCQGAYYSNDWYYVFGGGTEVVVK
Take B1: the binding result in experiment [1], in experiment [2] and in experiment [3] was “no binding” each time.

B2: 3G5 (antibody, V domains shown)
VH: EVQLVESGGVLVKPGGSLKLSCAASGFTFSDYAMSWVRQTPEKRLEWVATITDGGSYAYYTDDVKGRFTVSRDNARNNLFLQMSHLRSEDTGIYYCSRDRWPYYFDFWGRGTTLTVSS
VL: DIQMTQSPTSLSVSVGETVTITCRISENIYSNLAWYQQKEGKSPQLLVYAATKLADGVPSRFSGSGSGTQYSLKINSLQSEDFGNYYCQHFWTTPRTFGGGTKVEIK
Usually Kd stands for the free concentration of one partner at which half of the binding sites on the other are occupied at equilibrium, for simple one-to-one binding. Read a low Kd as a tighter complex. Turning to B2, in experiment [4], binding was characterised by a dissociation constant (Kd) of 0.285 nM. For the same molecule, the binding result in experiment [1], in experiment [2] and in experiment [3] was “no binding” in each case.

B3: 43F5 (antibody, V domains shown)
VH: QSLEESGGRLVTPGTPLTLTCKASGFSLSNYWMSWVRQAPGKGLEWIGFITSSDNTYYASWAKGRFTISKASSTTVGLKMTSPTTEDTATYFCARDISGINSVVLWGQGTLVTVSS
VL: DVVMTQTPASVSEPVGGTVTINCQASQSIDSYLSWYQQKPGQPPKFLIYGASNLASGVPSRFKGSRSGTEYTLTISDLECADAATYYCQCTDYSINYIGAFGGGTKVVVE
For the molecule B3, the binding result in experiment [3] is “no binding”.
